# Test results as given in patent US20110052582A1 (Hoffmann-La Roche, published 2011).
# T1: Soluble CDCP1 extracellular domain (CDCP1-ECD) (SEQ ID NO:30) fused to Streptavidin Binding Protein (SBP) (human, UniProt Q9H5V8 30-663)
# T1 construct: also called SBP-CDCP1-ECD
# T1 sequence: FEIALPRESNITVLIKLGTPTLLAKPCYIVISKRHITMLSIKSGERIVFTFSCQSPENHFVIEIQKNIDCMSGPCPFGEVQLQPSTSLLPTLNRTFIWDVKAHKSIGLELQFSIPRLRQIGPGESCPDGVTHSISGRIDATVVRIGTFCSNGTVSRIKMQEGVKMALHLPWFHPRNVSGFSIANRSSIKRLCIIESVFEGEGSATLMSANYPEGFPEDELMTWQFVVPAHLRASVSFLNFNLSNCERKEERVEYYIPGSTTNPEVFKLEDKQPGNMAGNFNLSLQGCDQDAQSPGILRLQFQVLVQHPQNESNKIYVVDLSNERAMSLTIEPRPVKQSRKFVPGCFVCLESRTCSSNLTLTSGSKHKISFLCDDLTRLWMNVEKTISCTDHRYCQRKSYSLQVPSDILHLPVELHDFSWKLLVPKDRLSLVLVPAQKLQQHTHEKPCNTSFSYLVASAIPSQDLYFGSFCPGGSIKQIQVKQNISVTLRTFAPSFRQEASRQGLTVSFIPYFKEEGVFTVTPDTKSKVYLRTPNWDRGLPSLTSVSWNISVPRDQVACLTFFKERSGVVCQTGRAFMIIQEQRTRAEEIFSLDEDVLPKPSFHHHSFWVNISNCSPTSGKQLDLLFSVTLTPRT
# Target: T1, Soluble CDCP1 extracellular domain …
# Assay: ELISA on captured SBP-CDCP1-ECD, ratio relative to chimeric CUB4 (chHC4)
# Protocol: Soluble CDCP1 extracellular domain (CDCP1-ECD) (SEQ ID NO:30) fused to Streptavidin Binding Protein (SBP) was captured on a sreptavidine plate. To define optimal binding of the antibody to SBP-CDCP1-ECD, 384-well polystyrene plates (NUNC, streptavidin-coated) delivered by MicroCoat, Bernried, Germany (ID-No. 1734776-001) have been coated with pure and stepwise diluted HEK293 supernatant (in BSA/IMDM buffer: 100 mg/ml BSA Fraction V, Roche 10735078001, dissolved in Iscove's Modified Dulbeccos Medium). Using a calibration curve of mouse CUB4 antibodies the optimal dilution factor of the HEK293 supernatant in relation to the streptavidin binding capacity of the microtiter plate was identified. For the standard coating, SBP-CDCP1-ECD containing HEK293 supernatant was diluted (between 1:15 and 1:40) and incubated overnight at 2-8° C. (25 μl per well). Intensive washing of the microtiter plate is necessary to remove remaining unbound SBP-CDCP1-ECD.
# Humanized CUB4 antibodies and/or reference antibody (chimeric (chHC4) CUB4 antibody comprising human constant region and mouse VH and VL of SEQ ID NO:1 and 2) were tested either undiluted or using a 12-step-dilution. 12.5 μl per well of each sample was incubated for 90 min at room temperature. After intensive washing using PBS-T (0.1% Tween 20 in PBS) 25 μl of either goat anti-human IgG antibodies coupled with HRP (Jackson ImmunoResearch, Code No: 109-036-098, dilution 1:10000) for human antibodies were added and incubated for 1 hour. After intensive washing the binding of the antibodies was detected with ABTS tablets (Roche Diagnostics GmbH, Cat. No.: 1112422). Absorbance at 405 nm/492 nm was measured using a standard photometer.
Binder,relative binding ratio,binding result
"hHC4-04 / hLC4-b (antibody, V domains shown) VH: EVQLLESGGGLVQPGGSLRLSCAASGFTFNSYGMSWVRQAPGKGLEWVSTISSGGSYTYYPDSVKGRFTISRDNSKNTLYLQMNSLRAEDTAVYYCARHPDYDGVWFAYWGQGTLVTVSS VL: EIVLTQSPATLSLSPGERATLSCSVSSSVFYVHWYQQKPGQAPRLLIYDTSKLASGIPARFSGSGSGTDYTLTISSLEPEDFAVYYCQQWNSNPPTFGGGTKVEIK",0.36,
"hHC4-K2 / hLC4-L2 (antibody, V domains shown) VH: EVQLVESGGGLVKPGGSLRLSCAASGFTFNSYGMSWVRQAPGKGLEWVSSISSGGSYTYYADSVKGRFTISRDNAKNSLYLQMNSLRAEDTAVYYCARHPDYDGVWFAYWGQGTLVTVSS VL: EIVLTQSPATLSLSPGERATMSCSVSSSVFYLHWYQQKPGQAPRLWIYDTSKLASGIPARFSGSGSGTDFTLTISSLEPEDFAVYYCQQWNSNPPTFGGGTKVEIK",0.2,
"hHC4-I / hLC4-J (antibody, V domains shown) VH: EVQLLESGGGLVQPGGSLRLSCAASGFTFNSYAMSWVRQAPGKGLEWVSAISSGGSYTYYADSVKGRFTISRDNSKNTLYLQMNSLRAEDTAVYYCAKHPDYDGVWFAYWGQGTLVTVSS VL: EIVMTQSPATLSLSPGERATMSCRASSSVFYLHWYQQKPGQAPRLWIYDTSKLASGIPARFSGSGSGTDFTLTISSLQPEDFAVYYCQQWNSNPPTFGGGTKVEIK",0.11,
"hHC4-I / hLC4-L2 (antibody, V domains shown) VH: EVQLLESGGGLVQPGGSLRLSCAASGFTFNSYAMSWVRQAPGKGLEWVSAISSGGSYTYYADSVKGRFTISRDNSKNTLYLQMNSLRAEDTAVYYCAKHPDYDGVWFAYWGQGTLVTVSS VL: EIVLTQSPATLSLSPGERATMSCSVSSSVFYLHWYQQKPGQAPRLWIYDTSKLASGIPARFSGSGSGTDFTLTISSLEPEDFAVYYCQQWNSNPPTFGGGTKVEIK",0.21,
"hHC4-H / hLC4-L (antibody, V domains shown, also called Humanized CUB4 Antibody No. 58) VH: EVQLVESGGGLVQPGGSLRLSCAASGFTFNSYGMSWVRQAPGKGLEWVATISSGGSYKYYVDSVKGRFTISRDNAKNSLYLQMNSLRAEDTAVYYCARHPDYDGVWFAYWGQGTLVTVSS VL: EIVLTQSPATLSLSPGERATMSCRASSSVFYLHWYQQKPGQAPRLWIYDTSKLASGIPARFSGSGSGTDFTLTISSLEPEDFAVYYCQQWNSNPPTFGGGTKVEIK",0.44,
"hHC4-07 / hLC4-J (antibody, V domains shown) VH: EVQLLESGGGLVQPGGSLRLSCAASGFTFNSYAMSWVRQAPGKGLEWVSTISSGGSYTYYPDSVKGRFTISRDNSKNTLYLQMNSLRAEDTAVYYCAKHPDYDGVWFAYWGQGTLVTVSS VL: EIVMTQSPATLSLSPGERATMSCRASSSVFYLHWYQQKPGQAPRLWIYDTSKLASGIPARFSGSGSGTDFTLTISSLQPEDFAVYYCQQWNSNPPTFGGGTKVEIK",0.07,
"hHC4-H / hLC4-J (antibody, V domains shown, also called Humanized CUB4 Antibody No. 36) VH: EVQLVESGGGLVQPGGSLRLSCAASGFTFNSYGMSWVRQAPGKGLEWVATISSGGSYKYYVDSVKGRFTISRDNAKNSLYLQMNSLRAEDTAVYYCARHPDYDGVWFAYWGQGTLVTVSS VL: EIVMTQSPATLSLSPGERATMSCRASSSVFYLHWYQQKPGQAPRLWIYDTSKLASGIPARFSGSGSGTDFTLTISSLQPEDFAVYYCQQWNSNPPTFGGGTKVEIK",0.52,
"hHC4-K2 / hLC4-L (antibody, V domains shown) VH: EVQLVESGGGLVKPGGSLRLSCAASGFTFNSYGMSWVRQAPGKGLEWVSSISSGGSYTYYADSVKGRFTISRDNAKNSLYLQMNSLRAEDTAVYYCARHPDYDGVWFAYWGQGTLVTVSS VL: EIVLTQSPATLSLSPGERATMSCRASSSVFYLHWYQQKPGQAPRLWIYDTSKLASGIPARFSGSGSGTDFTLTISSLEPEDFAVYYCQQWNSNPPTFGGGTKVEIK",0.21,
"hHC4-K2 / hLC4-K (antibody, V domains shown) VH: EVQLVESGGGLVKPGGSLRLSCAASGFTFNSYGMSWVRQAPGKGLEWVSSISSGGSYTYYADSVKGRFTISRDNAKNSLYLQMNSLRAEDTAVYYCARHPDYDGVWFAYWGQGTLVTVSS VL: EIVLTQSPATLSLSPGERATLSCRASSSVFYLHWYQQKPGQAPRLWIYDTSKLASGIPARFSGSGSGTDFTLTISSLEPEDFAVYYCQQWNSNPPTFGGGTKVEIK",0.3,
"hHC4-K2 / hLC4-M (antibody, V domains shown) VH: EVQLVESGGGLVKPGGSLRLSCAASGFTFNSYGMSWVRQAPGKGLEWVSSISSGGSYTYYADSVKGRFTISRDNAKNSLYLQMNSLRAEDTAVYYCARHPDYDGVWFAYWGQGTLVTVSS VL: EIVLTQSPATLSLSPGERATMSCGASSSVFYLHWYQQKPGLAPRLWIYDTSKLASGIPDRFSGSGSGTDFTLTISRLEPEDFAVYYCQQWNSNPPTFGGGTKVEIK",0.28,
"hHC4-K2 / hLC4-I (antibody, V domains shown) VH: EVQLVESGGGLVKPGGSLRLSCAASGFTFNSYGMSWVRQAPGKGLEWVSSISSGGSYTYYADSVKGRFTISRDNAKNSLYLQMNSLRAEDTAVYYCARHPDYDGVWFAYWGQGTLVTVSS VL: EIVMTQSPATLSLSPGERATLSCRASSSVFYLSWYQQKPGQAPRLWIYDTSKLASGIPARFSGSGSGTDFTLTISSLQPEDFAVYYCQQWNSNPPTFGGGTKVEIK",,no binding
"hHC4-H / hLC4-I (antibody, V domains shown) VH: EVQLVESGGGLVQPGGSLRLSCAASGFTFNSYGMSWVRQAPGKGLEWVATISSGGSYKYYVDSVKGRFTISRDNAKNSLYLQMNSLRAEDTAVYYCARHPDYDGVWFAYWGQGTLVTVSS VL: EIVMTQSPATLSLSPGERATLSCRASSSVFYLSWYQQKPGQAPRLWIYDTSKLASGIPARFSGSGSGTDFTLTISSLQPEDFAVYYCQQWNSNPPTFGGGTKVEIK",,no binding
"hHC4-07 / hLC4-K (antibody, V domains shown) VH: EVQLLESGGGLVQPGGSLRLSCAASGFTFNSYAMSWVRQAPGKGLEWVSTISSGGSYTYYPDSVKGRFTISRDNSKNTLYLQMNSLRAEDTAVYYCAKHPDYDGVWFAYWGQGTLVTVSS VL: EIVLTQSPATLSLSPGERATLSCRASSSVFYLHWYQQKPGQAPRLWIYDTSKLASGIPARFSGSGSGTDFTLTISSLEPEDFAVYYCQQWNSNPPTFGGGTKVEIK",0.1,
"hHC4-07 / hLC4-b (antibody, V domains shown) VH: EVQLLESGGGLVQPGGSLRLSCAASGFTFNSYAMSWVRQAPGKGLEWVSTISSGGSYTYYPDSVKGRFTISRDNSKNTLYLQMNSLRAEDTAVYYCAKHPDYDGVWFAYWGQGTLVTVSS VL: EIVLTQSPATLSLSPGERATLSCSVSSSVFYVHWYQQKPGQAPRLLIYDTSKLASGIPARFSGSGSGTDYTLTISSLEPEDFAVYYCQQWNSNPPTFGGGTKVEIK",0.07,
"hHC4-I / hLC4-I (antibody, V domains shown) VH: EVQLLESGGGLVQPGGSLRLSCAASGFTFNSYAMSWVRQAPGKGLEWVSAISSGGSYTYYADSVKGRFTISRDNSKNTLYLQMNSLRAEDTAVYYCAKHPDYDGVWFAYWGQGTLVTVSS VL: EIVMTQSPATLSLSPGERATLSCRASSSVFYLSWYQQKPGQAPRLWIYDTSKLASGIPARFSGSGSGTDFTLTISSLQPEDFAVYYCQQWNSNPPTFGGGTKVEIK",,no binding
"hHC4-I / hLC4-L (antibody, V domains shown) VH: EVQLLESGGGLVQPGGSLRLSCAASGFTFNSYAMSWVRQAPGKGLEWVSAISSGGSYTYYADSVKGRFTISRDNSKNTLYLQMNSLRAEDTAVYYCAKHPDYDGVWFAYWGQGTLVTVSS VL: EIVLTQSPATLSLSPGERATMSCRASSSVFYLHWYQQKPGQAPRLWIYDTSKLASGIPARFSGSGSGTDFTLTISSLEPEDFAVYYCQQWNSNPPTFGGGTKVEIK",0.11,
"hHC4-07 / hLC4-I (antibody, V domains shown) VH: EVQLLESGGGLVQPGGSLRLSCAASGFTFNSYAMSWVRQAPGKGLEWVSTISSGGSYTYYPDSVKGRFTISRDNSKNTLYLQMNSLRAEDTAVYYCAKHPDYDGVWFAYWGQGTLVTVSS VL: EIVMTQSPATLSLSPGERATLSCRASSSVFYLSWYQQKPGQAPRLWIYDTSKLASGIPARFSGSGSGTDFTLTISSLQPEDFAVYYCQQWNSNPPTFGGGTKVEIK",,no binding
